Data from patent US20230104769A1 (MABWELL SHANGHAI BIOSCIENCE, published 2023).

Key:
[1] = target: T1, human PD-1-hFc (NCBI accession No.: NP_005009.2, 21aa-167aa, Lot: 20180329) (human, UniProt Q15116 21-167); assay: competition ELISA, plate-bound PD-1-hFc, competitor PD-L2-hFc-Biotin 2 µg/mL; competitor PD-L2
T1 construct: range 21-167; not shown: human Fc (hFc)
Protocol: (§1) Afterwards, HRP-streptavidin (Cat: 52438, Sigma) which was diluted at a dilution of 1:2000 was added to the plate for reacting for 30 min. Later, TMB substrate was added to develop color for 15 min, which was followed by the addition of 2 M HCl to terminate the reaction and then the plate was detected by a microplate reader. With 630 nm as reference wavelength, the absorbance at 450 nm (A450 nm-630 nm) of each well in the plate was read and recorded.

[2] = target: T2, full-length human PD-1 N58A expressed on HEK293 cells (human, UniProt Q15116 25-288); assay: flow cytometry on transfected HEK293 cells
T2 construct: whole, on cells; Expression vector carries EGFP; the mutation removes the N-glycosylation site; also called PD-1-mut N58A
Protocol: The mutants obtained were inserted into an expression vector carrying EGFP to construct five plasmids expressing full-length human PD-1 (WT, N49A, N58A., N116A, N74A). […] 2 days after the transfection, the cells were collected to a 96-well plate, centrifuged at 1500 rpm for 2 minutes, and the supernatants in the wells were discarded. […] The working concentration of the primary antibodies was 2 μg/ml, and cells without primary antibodies added were used as negative controls. The mixtures obtained were centrifuged at 1500 rpm for 2 minutes, and supernatants were discarded. The cells in each well were resuspended by adding 200 μl PBS and the suspensions obtained were then centrifuged at 1500 rpm for 2 minutes, then supernatants were discarded. Later, the obtained cells were incubated with 200 μl goat anti-human IgG(Fc)-Cy5 (Cat: 12136, Lot: 017M4800V, Sigma) diluted with 5% BSA added into each well for 1 h at room temperature, then centrifuged at 1500 rpm for 2 minutes, and supernatants were discarded. The cells were resuspended by adding 200 μl PBS and the suspensions obtained were then centrifuged at 1500 rpm for 2 minutes, then supernatants were discarded. The cells again were resuspended by adding 200 μl PBS thereto and detected by flow cytometry (B49007AD, SNAW31211).

[3] = target: T1, human PD-1-hFc (NCBI accession No.: …); assay: competition ELISA, plate-bound PD-1-hFc, competitor PD-L1-mFc 1 µg/mL; competitor PD-L1
Protocol: as §1, with “Afterwards, HRP-anti-mouse Fc” for “Afterwards, HRP-streptavidin”, “(Cat: 115-035-071, Jackson Immuno Research)” for “(Cat: 52438, Sigma)”, “of 1:5000” for “of 1:2000”, “for 45” for “for 30”, “substrate (Cat: ME142, Beijing Taitianhe Biotech Co., Ltd.)” for “substrate”

[4] = target: T3, recombinant human PD-1 protein (NCBI accession No.: NP_005009.2, 21aa-167aa) (human, UniProt Q15116 21-167); assay: BLI (Octet QKe), biotin-labelled antibody on streptavidin sensor, PD-1 100 nM-12.5 nM
T3 construct: range 21-167; also called recombinant human PD-1 extracellular domain protein; PD-1-ECD
Protocol: Determination of the binding kinetics: the affinity of the antibody was determined with Octet QKe system from Fortebio using an assay of capturing biotin-labeled antibody with streptavidin. […] Both the binding and dissociating were conducted for 300 s.

T3 sequence (Q15116 21-167 limits assumed, form in doubt): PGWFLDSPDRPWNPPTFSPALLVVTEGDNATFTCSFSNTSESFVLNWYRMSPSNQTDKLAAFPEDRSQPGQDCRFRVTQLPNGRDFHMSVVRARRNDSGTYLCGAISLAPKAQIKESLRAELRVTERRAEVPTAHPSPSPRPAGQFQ
T1 sequence (Q15116 21-167 limits assumed, form in doubt): as above
T2 sequence (Q15116 25-288 N58A): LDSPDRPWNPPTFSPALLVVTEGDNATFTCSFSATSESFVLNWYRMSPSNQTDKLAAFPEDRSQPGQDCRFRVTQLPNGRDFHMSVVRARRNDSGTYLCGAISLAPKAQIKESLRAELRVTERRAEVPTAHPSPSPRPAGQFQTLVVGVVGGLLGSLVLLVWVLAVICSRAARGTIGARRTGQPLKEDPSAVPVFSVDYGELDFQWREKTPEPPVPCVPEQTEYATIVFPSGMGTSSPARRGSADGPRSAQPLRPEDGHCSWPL

IC50 [1]: 1.2 nM | binding result [2]: no binding (tested: 2 µg/ml) | IC50 [3]: 1.4 nM | Kd [4]: 6.16 nM | koff [4]: 0.00095 s⁻¹ | kon [4]: 154000 M⁻¹ s⁻¹
B1: h317 (humanized anti-human PD-1 antibody) (antibody, V domains shown)
VH: EVQLVESGGGLVKPGGSLRLSCAASGFTFSSYDMSWVRQAPGKGLEWVATISGGGSYTYYPDSVKGRFTISRDNAKNSLYLQMNSLRAEDTAVYYCASPDSSGVAYWGQGTLVTVSS
VL: DIVMTQSPLSLPVTPGEPASITCKASQDVETVVAWYLQKPGQSPRLLIYWASTRHTGVPDRFSGSGSGTDFTLKISRVEAEDVGVYYCQQYSRYPWTFGQGTKL
notes: also called h317-biotin; biotinylated h317
